Data published in the Immune Epitope Database (IEDB).
Values belong to the sequence of their own block, whether it stands above or below them.

Columns and labels:
HLA-A*11:01 = test: IEDB peptide-MHC binding, purified MHC/direct/fluorescence; filed as Kd, often an IC50 or EC50 that approximates it; ≥ and ≤ were set here for values at or beyond the usual limits of such assays
HLA-A*31:01 [1] = test: IEDB peptide-MHC binding, purified MHC/competitive/fluorescence; filed as Kd, often an IC50 or EC50 that approximates it; ≥ and ≤ were set here for values at or beyond the usual limits of such assays
HLA-A*01:01 [2] = test: IEDB peptide-MHC binding, purified MHC/direct/fluorescence; filed as Kd, often an IC50 or EC50 that approximates it; ≥ and ≤ were set here for values at or beyond the usual limits of such assays
HLA-A*80:01 = test: as above
HLA-A*02:01 [3] = test: IEDB peptide-MHC binding, purified MHC/competitive/radioactivity; filed as Kd, often an IC50 or EC50 that approximates it; ≥ and ≤ were set here for values at or beyond the usual limits of such assays
HLA-A*02:03 = test: as above
HLA-A*02:06 = test: as above
HLA-A*02:17 = test: as above
HLA-A*68:02 = test: as above
HLA-A*02:01 [4] = test: IEDB peptide-MHC binding, purified MHC/direct/fluorescence; filed as Kd, often an IC50 or EC50 that approximates it; ≥ and ≤ were set here for values at or beyond the usual limits of such assays
HLA-A*03:01 [5] = test: as above
HLA-A*24:03 = test: as above
HLA-A*26:01 = test: as above
HLA-A*31:01 [6] = test: as above
HLA-A*69:01 = test: as above
HLA-B*08:01 = test: as above
HLA-B*15:01 [7] = test: as above
HLA-B*27:05 = test: as above
HLA-B*35:01 = test: as above
HLA-B*40:01 = test: as above
HLA-B*58:01 = test: as above
HLA-B*15:01 [8] = test: IEDB peptide-MHC binding, purified MHC/competitive/fluorescence; filed as Kd, often an IC50 or EC50 that approximates it; ≥ and ≤ were set here for values at or beyond the usual limits of such assays; conditions: source organism: Escherichia coli O157:H7 str. EDL933
HLA-A*29:02 [9] = test: IEDB peptide-MHC binding, purified MHC/direct/fluorescence; filed as Kd, often an IC50 or EC50 that approximates it; ≥ and ≤ were set here for values at or beyond the usual limits of such assays; conditions: source organism: Mammarenavirus juninense
HLA-A*29:02 [10] = test: IEDB peptide-MHC binding, purified MHC/competitive/fluorescence; filed as Kd, often an IC50 or EC50 that approximates it; ≥ and ≤ were set here for values at or beyond the usual limits of such assays; conditions: source organism: Mycobacterium tuberculosis variant bovis BCG str. Pasteur 1173P2
HLA-A*03:01 [11] = test: as above
HLA-B*07:02 = test: IEDB peptide-MHC binding, purified MHC/direct/fluorescence; filed as Kd, often an IC50 or EC50 that approximates it; ≥ and ≤ were set here for values at or beyond the usual limits of such assays
HLA-B*39:01 = test: as above; conditions: source organism: Giardia lamblia ATCC 50803
HLA-B*44:02 = test: as above; conditions: source organism: Giardia lamblia ATCC 50803
HLA-A*01:01 [12] = test: IEDB peptide-MHC binding, purified MHC/competitive/radioactivity; filed as Kd, often an IC50 or EC50 that approximates it; ≥ and ≤ were set here for values at or beyond the usual limits of such assays; conditions: source organism: Dengue virus 4 Philippines/H241/1956
HLA-A*33:01 = test: as above; conditions: source organism: Lassa virus Josiah
HLA-A*68:01 = test: as above; conditions: source organism: Lassa virus Josiah
[13] = source organism: Escherichia coli O157:H7
[14] = source organism: Dengue virus 2 Jamaica/1409/1983
[15] = source organism: Dengue virus 1 Singapore/S275/1990
[16] = source organism: Yersinia pestis
[17] = source organism: Haemophilus influenzae
[18] = source organism: Dengue virus 4 Philippines/H241/1956
[19] = source organism: Dengue virus 3 China/80-2/1980
[20] = source organism: Dengue virus 1 Brazil/97-11/1997
[21] = source organism: Mammarenavirus juninense
[22] = source organism: Shigella sonnei Ss046
[23] = source organism: Giardia lamblia ATCC 50803
[24] = source organism: Corynebacterium glutamicum
[25] = source organism: Mammarenavirus lassaense
[26] = source organism: Bacillus anthracis str. A2012

Sequence: AVFEIFFRK
Kd (HLA-A*11:01; source organism: Mycobacterium tuberculosis): 12.6 nM
Kd (HLA-A*31:01 [1]; source organism: Mycobacterium tuberculosis variant bovis BCG str. Pasteur 1173P2): 61.7 nM

Sequence: RVIRTVREK
Kd (HLA-A*01:01 [2]; [13]): ≥ 20000 nM
Kd (HLA-A*80:01; [13]): ≥ 20000 nM

Sequence: TMTDDIGMGV
Kd (HLA-A*02:01 [3]; [14]): 21.3 nM
Kd (HLA-A*02:03; [14]): 7.59 nM
Kd (HLA-A*02:06; [14]): 5.64 nM
Kd (HLA-A*02:17; [14]): 313 nM
Kd (HLA-A*68:02; [14]): 116 nM

Sequence: AIDLDPVVY
Kd (HLA-A*80:01; [15]): ≥ 5000 nM

Sequence: DLRPYGLIK
Kd (HLA-A*01:01 [2]; [16]): ≥ 20000 nM
Kd (HLA-A*80:01; [16]): ≥ 20000 nM

Kd (HLA-A*01:01 [2]; [17]): ≥ 20000 nM
Kd (HLA-A*02:01 [4]; [17]): 666 nM
Kd (HLA-A*03:01 [5]; [17]): ≥ 20000 nM
Kd (HLA-A*11:01; [17]): ≥ 20000 nM
Kd (HLA-A*24:03; [17]): 893 nM
Kd (HLA-A*26:01; [17]): ≥ 20000 nM
Kd (HLA-A*31:01 [6]; [17]): ≥ 20000 nM
Kd (HLA-A*69:01; [17]): ≥ 20000 nM
Kd (HLA-B*08:01; [17]): ≥ 20000 nM
Kd (HLA-B*15:01 [7]; [17]): 10500 nM
Kd (HLA-B*27:05; [17]): ≥ 20000 nM
Kd (HLA-B*35:01; [17]): 290 nM
Kd (HLA-B*40:01; [17]): ≥ 20000 nM
Kd (HLA-B*58:01; [17]): ≥ 20000 nM
Sequence: YATVAGHEG

Kd (HLA-A*31:01 [1]; source organism: Escherichia coli O157:H7 str. EDL933): 1.7 nM
Kd (HLA-B*15:01 [8]): ≥ 20000 nM
Sequence: VLIGRRWFR

Sequence: MVLAFITFL
Kd (HLA-A*02:01 [3]; [18]): 16.9 nM
Kd (HLA-A*02:06; [18]): 3.45 nM
Kd (HLA-A*02:17; [18]): 3.99 nM
Kd (HLA-A*68:02; [18]): 19.2 nM

Sequence: ALFSGVSWIM
Kd (HLA-A*02:01 [3]; [19]): 6.61 nM
Kd (HLA-A*02:17; [19]): 202 nM

Sequence: ILNPYMPSV
Kd (HLA-A*02:01 [3]; [15]): 4.26 nM
Kd (HLA-A*02:03; [20]): 1.98 nM
Kd (HLA-A*02:06; [20]): 4.98 nM
Kd (HLA-A*02:17; [15]): 3.58 nM

Sequence: MTLWYMWQV
Kd (HLA-A*02:01 [3]; [18]): 13.7 nM
Kd (HLA-A*02:06; [18]): 2.67 nM
Kd (HLA-A*02:17; [18]): 27.4 nM
Kd (HLA-A*68:02; [18]): 11.3 nM

Sequence: VSDRPVMRY
Kd (HLA-A*01:01 [2]; [21]): 185 nM
Kd (HLA-A*29:02 [9]): 117 nM
Kd (HLA-A*80:01; [21]): 360 nM

Sequence: LAIDRDDLY
Kd (HLA-A*29:02 [10]): 5.3 nM

Sequence: YVVIAILTV
Kd (HLA-A*02:01 [3]; [14]): 254 nM
Kd (HLA-A*02:06; [14]): 12.4 nM
Kd (HLA-A*02:17; [14]): 509 nM
Kd (HLA-A*68:02; [14]): 26.3 nM

Sequence: MQLSRLTLR
Kd (HLA-A*03:01 [11]; [22]): 3500 nM
Kd (HLA-A*31:01 [1]; [22]): 6.1 nM

Sequence: KILNPYMPSV
Kd (HLA-A*02:01 [3]; [15]): 4.81 nM
Kd (HLA-A*02:03; [20]): 48.5 nM
Kd (HLA-A*02:06; [20]): 5.14 nM
Kd (HLA-A*02:17; [15]): 7.71 nM

Sequence: ARADGILRF
Kd (HLA-A*01:01 [2]; [23]): ≥ 20000 nM
Kd (HLA-A*02:01 [4]; [23]): ≥ 20000 nM
Kd (HLA-A*03:01 [5]; [23]): ≥ 20000 nM
Kd (HLA-A*11:01; [23]): ≥ 20000 nM
Kd (HLA-A*26:01; [23]): ≥ 20000 nM
Kd (HLA-A*31:01 [6]; [23]): ≥ 20000 nM
Kd (HLA-A*69:01; [23]): ≥ 20000 nM
Kd (HLA-B*07:02; [23]): ≥ 20000 nM
Kd (HLA-B*08:01; [23]): ≥ 20000 nM
Kd (HLA-B*15:01 [7]; [23]): ≥ 20000 nM
Kd (HLA-B*27:05; [23]): 201 nM
Kd (HLA-B*35:01; [23]): 4030 nM
Kd (HLA-B*39:01): 2560 nM
Kd (HLA-B*40:01; [23]): 3170 nM
Kd (HLA-B*44:02): ≥ 20000 nM
Kd (HLA-B*58:01; [23]): ≥ 20000 nM

Kd (HLA-A*01:01 [2]; [24]): ≥ 20000 nM
Kd (HLA-A*02:01 [4]; [24]): ≥ 20000 nM
Kd (HLA-A*03:01 [5]; [24]): ≥ 20000 nM
Kd (HLA-A*11:01; [24]): ≥ 20000 nM
Kd (HLA-A*24:03; [24]): ≥ 20000 nM
Kd (HLA-A*26:01; [24]): ≥ 20000 nM
Kd (HLA-A*31:01 [6]; [24]): ≥ 20000 nM
Kd (HLA-B*07:02; [24]): 122 nM
Kd (HLA-B*08:01; [24]): 2340 nM
Kd (HLA-B*15:01 [7]; [24]): 296 nM
Kd (HLA-B*27:05; [24]): ≥ 20000 nM
Kd (HLA-B*35:01; [24]): 5.17 nM
Kd (HLA-B*40:01; [24]): 2570 nM
Kd (HLA-B*58:01; [24]): 2380 nM
Sequence: FAAAAARTL

Sequence: FIDGISLGL
Kd (HLA-A*01:01 [12]): 1520 nM
Kd (HLA-A*02:01 [3]; [18]): 18.9 nM
Kd (HLA-A*02:06; [18]): 32.4 nM
Kd (HLA-A*02:17; [18]): 56.1 nM

Sequence: RTRDIYISR
Kd (HLA-A*03:01 [5]; [25]): 98.5 nM
Kd (HLA-A*11:01; [25]): ≥ 20000 nM
Kd (HLA-A*31:01 [1]; source organism: Lassa virus GA391): 4.75 nM
Kd (HLA-A*33:01): 22.3 nM
Kd (HLA-A*68:01): 825 nM

Sequence: KLRMVTGLR
Kd (HLA-A*03:01 [5]; source organism: Influenza A virus (A/Liaoning/25/2000(H1N1))): 366 nM
Kd (HLA-A*31:01 [1]; source organism: Influenza A virus (A/Bangkok/10/1983(H1N1))): 45.1 nM

Sequence: DTPGERNPY
Kd (HLA-A*01:01 [2]; [25]): ≥ 20000 nM
Kd (HLA-A*80:01; [25]): ≥ 20000 nM

Sequence: LLLSFTSFR
Kd (HLA-A*03:01 [11]; [26]): 22.9 nM
Kd (HLA-A*31:01 [1]; [26]): 2.6 nM
